This note sets out measurements from patent US20170306037A1 (Novartis, published 2017).

Common to all, as to experiment: specificity ELISA, bacterial lysate on HisGrab nickel plate
Background: In an ELISA, binding on a coated surface is turned into a signal by an enzyme label.

Assay [1] concerns the target T1, BCMA (human, UniProt Q02223).
T1 sequence (receptor, looked up): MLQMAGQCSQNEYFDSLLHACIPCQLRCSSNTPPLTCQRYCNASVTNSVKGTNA
On the procedure: (§1) For the specificity ELISA, a crude cell lysate was made from bacteria expressing members of the TNFRSF family. To prevent nonspecific binding to the plate 50 μL of 5% BSA was added per mL of bacterial lysate. […] The plate was then rinsed three times with PBST, then MAB was diluted to 0.5 μg/mL in 10% FBS in PBS and 100 μL was added to each well. The plate was incubated for 1 hour at room temperature and then rinsed three times with PBST. Anti-human kappa antibody (Sigma #A7164) conjugated to HRP was diluted 1:5000 in 1:1 PBST: 10% FBS in PBS and 100 μL added to each well. The plate was incubated for 1 hour at room temperature, and then washed three times with PBST. 100 μL of SureBlue TMB substrate was added to each well and the plate was incubated for about 10 min at room temperature before stopping the reaction with 100 μL /well of 2N H₂SO₄.

The target of assay [2] is DR5 (human, UniProt O14763). Here is the method: as §1
Assay [3] concerns the target T2, CD137 (human, UniProt Q07011).
T2 construct: also called TNFRSF9
Here is the method: as §1

Assay [4] concerns the target T3, DcR1 (human, UniProt O14798).
T3 sequence (receptor, looked up): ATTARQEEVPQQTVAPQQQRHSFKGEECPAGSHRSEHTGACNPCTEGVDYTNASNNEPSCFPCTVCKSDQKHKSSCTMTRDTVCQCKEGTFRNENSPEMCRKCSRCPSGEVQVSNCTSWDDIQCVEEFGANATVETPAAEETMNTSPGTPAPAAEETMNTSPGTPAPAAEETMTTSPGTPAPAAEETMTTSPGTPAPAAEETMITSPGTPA
Here is the method:
as §1

Assay [5] deals with T4, NGFR (human, UniProt P08138).
T4 sequence (receptor, looked up): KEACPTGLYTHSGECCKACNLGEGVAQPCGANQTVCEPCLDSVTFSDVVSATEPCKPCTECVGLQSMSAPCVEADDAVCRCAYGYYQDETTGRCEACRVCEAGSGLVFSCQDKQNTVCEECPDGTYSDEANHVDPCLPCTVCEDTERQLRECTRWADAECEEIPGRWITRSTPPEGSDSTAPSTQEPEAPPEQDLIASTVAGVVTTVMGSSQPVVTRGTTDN
Here is the method: as §1

Assay [6] addresses TNFR3 (human, UniProt P36941). On the procedure: as §1
The target in assay [7] is T5, OX40 (human, UniProt P43489).
T5 sequence (receptor, looked up): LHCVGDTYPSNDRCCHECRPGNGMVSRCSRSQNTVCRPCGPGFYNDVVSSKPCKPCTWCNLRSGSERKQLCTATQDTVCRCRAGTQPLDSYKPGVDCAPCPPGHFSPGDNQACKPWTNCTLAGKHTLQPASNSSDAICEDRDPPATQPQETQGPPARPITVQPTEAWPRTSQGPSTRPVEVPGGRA
Here is the method:
as §1

Assay [8] concerns the target T6, CD27 (human, UniProt P26842).
T6 sequence (receptor, looked up): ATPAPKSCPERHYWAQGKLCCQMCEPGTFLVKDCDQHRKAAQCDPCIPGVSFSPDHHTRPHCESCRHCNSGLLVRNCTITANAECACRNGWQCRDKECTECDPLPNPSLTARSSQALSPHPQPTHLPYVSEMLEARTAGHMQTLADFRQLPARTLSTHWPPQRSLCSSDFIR
On the procedure:
as §1

Assay [9] deals with T7, TNFR1 (human, UniProt P19438).
T7 sequence (receptor, looked up): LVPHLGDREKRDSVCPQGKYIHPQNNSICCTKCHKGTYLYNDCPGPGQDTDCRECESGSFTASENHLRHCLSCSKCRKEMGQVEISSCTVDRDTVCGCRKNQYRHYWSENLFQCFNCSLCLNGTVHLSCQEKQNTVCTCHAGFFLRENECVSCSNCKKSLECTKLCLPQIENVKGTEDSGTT
Here is the method: as §1

For assay [10], the target named is T8, DR3 (human, UniProt Q93038).
T8 sequence (receptor, looked up): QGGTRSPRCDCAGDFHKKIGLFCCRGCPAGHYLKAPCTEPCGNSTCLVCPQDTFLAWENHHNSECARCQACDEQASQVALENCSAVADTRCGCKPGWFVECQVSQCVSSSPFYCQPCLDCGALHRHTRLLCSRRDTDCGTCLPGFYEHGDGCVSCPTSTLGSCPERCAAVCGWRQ
Here is the method:
as §1

The target of assay [11] is T9, DR4 (human, UniProt O00220).
T9 sequence (receptor, looked up): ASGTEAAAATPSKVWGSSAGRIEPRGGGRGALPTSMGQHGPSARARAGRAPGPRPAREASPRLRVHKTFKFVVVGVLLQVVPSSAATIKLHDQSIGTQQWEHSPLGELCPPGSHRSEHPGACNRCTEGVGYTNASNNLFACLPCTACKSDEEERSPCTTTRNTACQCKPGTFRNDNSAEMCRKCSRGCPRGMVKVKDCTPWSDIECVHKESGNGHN
Here is the method: as §1

The target in assay [12] is T10, TACI (human, UniProt O14836).
T10 sequence (receptor, looked up): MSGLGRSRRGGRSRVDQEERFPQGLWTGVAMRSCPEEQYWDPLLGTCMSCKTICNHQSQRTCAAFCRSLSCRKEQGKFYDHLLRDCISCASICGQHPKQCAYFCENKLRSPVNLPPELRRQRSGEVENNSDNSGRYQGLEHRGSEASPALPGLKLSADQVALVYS
On the procedure:
as §1

The target of assay [13] is T11, BAFFR (human, UniProt Q96RJ3).
T11 sequence (receptor, looked up): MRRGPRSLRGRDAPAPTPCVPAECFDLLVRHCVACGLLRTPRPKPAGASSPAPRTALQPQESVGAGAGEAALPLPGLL
Here is the method:
as §1

Sequence of TNFR3 (P36941 31-227 limits assumed): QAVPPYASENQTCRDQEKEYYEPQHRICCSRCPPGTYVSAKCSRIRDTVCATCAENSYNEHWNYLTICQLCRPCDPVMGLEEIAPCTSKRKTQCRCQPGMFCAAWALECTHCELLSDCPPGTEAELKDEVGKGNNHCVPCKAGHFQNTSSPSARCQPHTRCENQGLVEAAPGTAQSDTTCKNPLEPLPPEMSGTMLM

B1: MAB4 (IgG1 kappa) (antibody, V domains shown)
VH: EVQLVESGGGLVQSGGSLRLSCAASGFSLSSYGVDWVRQAPGKGLEWVGVIWGGGGTYYASSLMGRFTISRDNSKNTLYLQMNSLRAEDTAVYYCAKHAYGHDGGFAMDYWGQGTLVTVSS
VL: EIVMTQSPATLSVSPGERATLSCRASESVSSNVAWYQQRPGQAPRLLIYGASNRATGIPARFSGSGSGTDFTLTISRLEPEDFAVYYCGQSYSYPFTFGQGTKLEIKR
With B1, the binding result in assay [1], in [2], in assay [3], in [4], in assay [5] and in [6] was “no binding (tested: not on the sheet; paragraph 335: 0.5 µg/mL)” throughout. In addition, the binding result in assay [7], in [8], in [9], in [10], in [11] and in assay [12] was “no binding (tested: not on the sheet; paragraph 335: 0.5 µg/mL)” in each case. In addition, the binding result in assay [13] is listed as “no binding (tested: not on the sheet; paragraph 335: 0.5 µg/mL)”.

B2: MAB5 (IgG1 kappa) (antibody, V domains shown)
VH: EVQLVESGGGLVQSGGSLRLSCAASGFSLSSYGVDWVRQAPGKGLEWLGVIWGGGGTYYTSSLMGRFTISRDNSKNTLYLQMNSLRAEDTAVYYCAKHAYGHDGGFAMDYWGQGTLVTVSS
VL: EIVMTQSPATLSVSPGERATLSCRASESVSSNVAWYQQRPGQAPRLLIYGASNRATGIPARFSGSGSGTDFTLTISRLEPEDFAVYYCGQSYSYPFTFGQGTKLEIKR
notes: also called MABS (misprint of MAB5)
Consider B2, for which the binding result in assay [1], in assay [2], in assay [3], in assay [4], in [5] and in assay [6] was “no binding (tested: not on the sheet; paragraph 335: 0.5 µg/mL)” throughout. For the same molecule, the binding result in [7], in assay [8], in [9], in assay [10], in [11] and in assay [12] was “no binding (tested: not on the sheet; paragraph 335: 0.5 µg/mL)” each time. Moreover, the binding result in assay [13] is reported as “no binding (tested: not on the sheet; paragraph 335: 0.5 µg/mL)”.
